Measured values taken from US20250215467A1, “L-THREONINE TRANSALDOLASES AND USES THEREOF” (University of Delaware, priority 2022, published 2025).

Test system: not listed separately
Assay: TTA-ADH coupled assay, substrate scope of TTAs on aromatic aldehydes
Assay type: biochemical
Conditions: TTA-ADH coupled assay
Method: (§1) High-throughput screening of purified TTAs was performed with a TTA-ADH coupled assay using purified TTA and commercially available alcohol dehydrogenase from S. cerevisiae purchased from MilliporeSigma. Aldehyde stocks were prepared in 50-100 mM solutions in DMSO or acetonitrile. Reaction mixtures were prepared in a 96-well plate with 100 μL of 100 mM phosphate buffer pH 7.5, 0.5 mM NADH, 0.4 mM PLP, 15 mM MgCl2, and 100 mM L-Thr with the addition of 0.25 mM to 1 mM aldehyde depending on the background absorbance at 340 nm (Table 4), 10 U ScADH, and 0.25 μM purified TTA unless otherwise specified. Reactions were initiated with the addition of enzyme. […] The following controls were included for every assay: reaction mixture without aldehyde, without TTA, and without enzyme (TTA or ADH). Rates were calculated by identifying the linear region at the beginning of the kinetic run and converting the depletion in absorbance to the depletion of mM NADH using an NADH standard curve.
We specifically selected substrates with ring substituents with different electron withdrawing properties (1, 3, 6, 7, 8), substituent size (12), and aldehyde chain length (15) to compare the activity of the putative TTAs to ObiH. We were also encouraged by the activity of PbTTA and KaTTA on vanillin and protocatechualdehyde which are substrates that would form products like commercially available therapeutic, Droxidopa (FIG. 18).
To explore the possibility that DbTTA and TmTTA are TTAs active on other related aldehydes, we sought to examine their activity with L-Thr and aldehyde substrates with different ring substituent position (2), bulkier, hydrophobic chemistry (10), and aldehyde chain length (14) using the TTA-ADH coupled assay.

Molecule	TTA activity with L-Thr and aldehydes 2, 10, 14
TmTTA: putative TTA, SEQ ID NO: 36, Thermocladium modestius (protein, listed as Thermocladium modestius) MREEEAIAALSKLRAIMDRHNNWRRRETINLIPSENVMSPLAEYFYLNDMMGRYAEGTIGKRYYQGVSLVDEAEQMLVDLMSSLFSSRFTDVRPISGTVANMAVYHSVAGLGEKIASLPTAAGGHISHNETGAPKAFGLRVSYLPWSQENFNVDVDAARRLIAEERPKLVLLGASLYLFPHPIKELADAAHEVGAVLMHDSAHVLGLIAGHQFPNPLELGADIMTSSTHKTFPGPQGGVIFTTREDLFKEIQRSVFPVMTSNYHLHRYASTIVTAIEMSTYGDEYAATVRSNAKALAEQLHANGLPVVAEEHGFTATHQVAMDVSKFGGGGPIAKALEDANIIVNKNMLPWDKSPVKPSGIRMGVQEMTRMGMGKGEMAAVAELIAKVVIKGVEPSKVKPEVVELRRGFTKVRYGFDLSTLGLNCPCLPLL	Neither of these proteins appeared to have any TTA activity
DbTTA: putative TTA, SEQ ID NO: 40, Deltaproteobacteria bacterium (protein, listed as Deltaproteobacteria bacterium) LTNNRELMDRIGYNLSQGLVSSQHTASLVALFIALHEARLTGKAFAKQVVENARTLASRLAALGVPVLARSDGQFTDNHHFFINLTGVASAPHQMERLLRAHLVVQRGMPFRNVDALRVGVQEVTRRGYGPGEMAQLAEWIASIVIGGADPEVVAPAVQAMAKRFDTIYYTGETVDGKLDLPEIAAPSAKGRWVDYRHLGNDFAMDDTEFSEIRALGAAAGAFPNQTDSTGNVSLRSGARVFVSSSGSYIKHLADGQVVELDAVDPSGELIDYHGAALPSSESLMHFLVYQNVPAGAVVHTHYLLTNQEAADFDVAVIAPQEYASIALARAVAEASKRSRIVYIQKHGLVFWGTDTADCLSQVHNFIHNRPNRRAAEAVYAS	Neither of these proteins appeared to have any TTA activity

Same assay, conditions: purified with SUMO tag

Molecule	TTA activity on aromatic aldehydes
SNTTA: putative TTA, SEQ ID NO: 38, Streptomyces sp. NRRL 30471 (protein, Streptomyces sp. NRRL 30471) MTSSDDCAASRTAPVAGRAELLALLGEIEKEQRINEAAVNLVPSENRISPWAGAPLRTDFYNRYFFNDSLDPQGWQFRGGEGIGRLEKELALPALRRLGRADHVNIRPVSGMSAMLVVLLGLGGEPGDGVVCVDAETGGHYATGRQIAMLGRRPLPVRVVAGRVDLDALRTALTSCHVPLVYLDLQNSLWELDVAGVAEVIARTSPRTVLHVDCSHTLGLILGGSHKNPLDLGADTTGGSTHKTFPGPQKGVLFTRDENLSRKIRDAQFFTISSHHFAETLALALAAAEFEHFGAAYSRQVLINARAFAHRLRERGFGVVEGGPQLTDTHQVWVRLPLEESADAFSAQLASLGIRVNVQTELPDIPEPALRLGVSEITLNGGREPAMETLAEIFALVRAGEATKAVDLFQVLPHEMGEPYFFTGLPQEAGLFHG	no TTA activity

Test system: not listed separately
Assay: In vitro assay over 20 h with HPLC analysis (amino acid substrate specificity, diastereomeric excess)
Assay type: biochemical
Conditions: not given
Method: Metabolites of interest were quantified via high-performance liquid chromatography (HPLC) using an Agilent 1260 Infinity model equipped with a Zorbax Eclipse Plus-C18 column. To quantify aldehyde and β-OH-nsAAs, an initial mobile phase of solvent A/B=95/5 was used (solvent A, water+0.1% TFA; solvent B, acetonitrile+0.1% TFA) and maintained for 5 min. A gradient elution was performed (A/B) as follows: gradient from 95/5 to 50/50 for 5-12 min, gradient from 50/50 to 0/100 for 12-13 min, and gradient from 0/100 to 95/5 for 13-14 min. A flow rate of 1 mL min-1 was maintained, and absorption was monitored at 210, 250 and 280 nm.
We performed an in vitro assay over 20 h using 3 as the aldehyde substrate and either L-Thr, Glycine (Gly), or L-Serine (L-Ser) as the candidate amino acid. Since the TTA-ADH coupled assay is specific to L-Thr, we analyzed TTA activity via HPLC with a chemically synthesized β-OH-nsAA standard for the assumed product from 3.

Molecule	β-OH-nsAA product formation from 3 and L-Thr
NoTTA: putative TTA, SEQ ID NO: 39, Nocardia otitidiscaviarum (protein, listed as Nocardia otitidiscaviarum) MNTFDILEQLARYEVGTSRRLHLIASENPLDSDTRVPYMLAGTLARYAFGEPGQPNWAWPGRETLIDLEADTAAALGALLGADHVNLRPTSGLSAMTVALSALAEHAGDRATVLSLAESDGGHGSTGFMARRFGLDWQRMPADPRTGVVDLDALARQARSARGPLVLYLDAFMARFPFDLTGIRGAVGDSALIHYDGSHPLGLIAGGRFQNPLAEGADSLGGSVHKTWPGPVGKGIIATNDSALASRFDTHAAGWISHHHPADLAALALSTAWMEQHAGDYATAVIANAVQLADELADGGLSICADDRGATASHQVWVDIAPICPAPVAAQRLYDAGIVVNAIAIPGLAEPGLRLGVQELTRWGLDRDGMTVLTWVLTQLLVHNAATAVVAPQMEALRTGLTLPEDRHGLEGFLRACDPQEVSVA	no product
StTTA: TTA, SEQ ID NO: 35, Streptomyces (multi-species), first 36 N-terminal amino acids removed (protein, Streptomyces (multi-species)) GVWAGDRVAQVLERLASDFVLDNTYREQHLSLTASENYPSKLVRMLGAGLQGGFYEFAPPYPAEAGEWAFPDSGANASLVGKLTGIGRQLFEAATFDWRPNGGSVAEQAVLLGTCGRGDGFVHFAHKDGGHFALESLAGAAGVNTYHLPMVDRTLLIDVDRLATLCAEHPEIKLVILDQSFKLRWQPLAQIRAALPEGVFLAYDASHDGALIAGGVLPQPTLLGADAVHGNTHKTIAGPQKAYIAFRDAEHPKLRAVSDWVCPQMQSNSHAELIAPMYVALSEVALYGHAYARQILANAQALAHGLHEEGVRVSGESFGFTETHQVHVVTGSAADALRLSLGELAQAGIRTTNIEVPGANGLHGLRLGVQAMTRRGLREPQMREVARLVAKVVLRRAEPAAVRAEVADLLQHHPLDQLAYSFDSYVDSPAAARLLGEVFR	active
TmTTA: putative TTA, SEQ ID NO: 36, Thermocladium modestius (protein, listed as Thermocladium modestius) MREEEAIAALSKLRAIMDRHNNWRRRETINLIPSENVMSPLAEYFYLNDMMGRYAEGTIGKRYYQGVSLVDEAEQMLVDLMSSLFSSRFTDVRPISGTVANMAVYHSVAGLGEKIASLPTAAGGHISHNETGAPKAFGLRVSYLPWSQENFNVDVDAARRLIAEERPKLVLLGASLYLFPHPIKELADAAHEVGAVLMHDSAHVLGLIAGHQFPNPLELGADIMTSSTHKTFPGPQGGVIFTTREDLFKEIQRSVFPVMTSNYHLHRYASTIVTAIEMSTYGDEYAATVRSNAKALAEQLHANGLPVVAEEHGFTATHQVAMDVSKFGGGGPIAKALEDANIIVNKNMLPWDKSPVKPSGIRMGVQEMTRMGMGKGEMAAVAELIAKVVIKGVEPSKVKPEVVELRRGFTKVRYGFDLSTLGLNCPCLPLL	no product
DbTTA: putative TTA, SEQ ID NO: 40, Deltaproteobacteria bacterium (protein, listed as Deltaproteobacteria bacterium) LTNNRELMDRIGYNLSQGLVSSQHTASLVALFIALHEARLTGKAFAKQVVENARTLASRLAALGVPVLARSDGQFTDNHHFFINLTGVASAPHQMERLLRAHLVVQRGMPFRNVDALRVGVQEVTRRGYGPGEMAQLAEWIASIVIGGADPEVVAPAVQAMAKRFDTIYYTGETVDGKLDLPEIAAPSAKGRWVDYRHLGNDFAMDDTEFSEIRALGAAAGAFPNQTDSTGNVSLRSGARVFVSSSGSYIKHLADGQVVELDAVDPSGELIDYHGAALPSSESLMHFLVYQNVPAGAVVHTHYLLTNQEAADFDVAVIAPQEYASIALARAVAEASKRSRIVYIQKHGLVFWGTDTADCLSQVHNFIHNRPNRRAAEAVYAS	no product

Test system: ObiH
Assay: TTA-ADH coupled assay, ObiH screened on aromatic aldehyde substrates
Assay type: biochemical, Pseudomonas fluorescens
Conditions: 0.25-1 mM aldehyde, 100 mM L-Thr, 0.25 μM purified TTA, 30° C.
Method: as §1
To expand our understanding of the TTA enzyme class, we wanted a high-throughput method for rapid screening of multiple enzymes and candidate aldehyde substrates. We began by analyzing a previously reported coupled enzyme assay (FIG. 2a) based on the addition of alcohol dehydrogenase (ADH), which consumes NADH to reduce the co-product acetaldehyde in a manner that can be monitored at 340 nm. Unfortunately, this coupled assay for TTA activity suffers from false positives and confounding variables which we sought to address. […] Second, the characterized TTAs are known to catalyze the decomposition of L-Thr in the absence of an aldehyde substrate, which is an undesired reaction that also generates an acetaldehyde co-product. Another limitation of the TTA-ADH coupled assay is that many of the aromatic aldehyde candidate substrates absorb at the same measurement wavelength (Table 4). Thus, we minimized the impact of the false positives, spectral overlap, and other confounding variables by tuning enzyme and aldehyde concentrations and monitoring the undesired reactions with two controls: (1) lacking aldehyde substrate (“L-Thr”) and (2) lacking TTA (“no TTA”) where only the ADH and substrate are present. Then, we validated the TTA-ADH coupled assay by performing HPLC analysis, using the chemically synthesized β-OH-nsAA standard for the assumed product from 3, over a time course where we observed that the addition of the ScADH improves reaction rates three-fold. As previously reported by others, we were also able to improve β-OH-nsAAs yields when using the ScADH coupled to a co-factor regeneration system. As the last step of verification, we screened the TTA-ADH coupled assay with ObiH before and after photo-treatment, we observed no differences in reaction rate and continued to assay the TTAs without photo-treatment.
Upon assay validation, we hypothesized that we could rapidly probe the activity of ObiH on diverse aldehydes to expand the potential chemical handles of β-OH-nsAAs. We successfully screened ObiH against 16 unique substrates in a single experiment (FIGS. 2b,c). […] Our screen included nine substrates not previously tested with ObiH to our knowledge; activity on seven of these substrates was confirmed with new peak formation via HPLC or LC-MS (FIGS. 3-14). The new substrates include aldehydes that contain amines, conjugatable handles, or larger hydrophobic groups to improve the chemical diversification of β-OH-nsAA products. Our result supported the known general trend that aldehydes containing electron-withdrawing ring substituents are the preferred substrates of ObiH. As expected, the amine-aldehydes were very poor substrates for ObiH, which we hypothesize is because of the strong electron-donating potential of amines. Additionally, one amine-containing substrate (5) absorbed at 340 nm, so it was only tested at low concentrations of 0.25 mM aldehyde (Table 4). […]

Molecule	activity of ObiH on aldehyde substrate (initial rate, TTA-ADH coupled assay)
COc1ccc(C=O)cc1 [Aldehyde 9, 4-methoxybenzaldehyde]	some activity
O=Cc1ccc(B(O)O)cc1 [Aldehyde 13, 4-boronobenzaldehyde]	activity
O=Cc1ccc(C=O)cc1 [Aldehyde 7, terephthalaldehyde]	activity
O=Cc1ccccc1[N+](=O)[O-] [Aldehyde 3, 2-nitro-benzaldehyde]	validated the activity
O=Cc1ccc(-c2ccccc2)cc1 [Aldehyde 10, 4-biphenylcarboxaldehyde]	some activity
O=CCc1ccc([N+](=O)[O-])cc1 [Aldehyde 15, 4-nitro-phenylacetaldehyde]	validated the activity
O=Cc1ccc2ccccc2c1 [Aldehyde 12, 2-napthalaldehyde]	some activity
